Test results published in US20200197536A1.

Target: Met (hepatocyte growth factor receptor) on Hep3B cells (human) (UniProt P08581)
Assay: flow cytometry saturation binding of Alexa Fluor 647-labeled protocells (0.015 wt % MC40, about 6 peptides/particle) on cytochalasin D-treated Hep3B cells; non-specific binding measured with saturating unlabeled hepatocyte growth factor and subtracted

Sequence of UniProt P08581 (P08581 25-1390): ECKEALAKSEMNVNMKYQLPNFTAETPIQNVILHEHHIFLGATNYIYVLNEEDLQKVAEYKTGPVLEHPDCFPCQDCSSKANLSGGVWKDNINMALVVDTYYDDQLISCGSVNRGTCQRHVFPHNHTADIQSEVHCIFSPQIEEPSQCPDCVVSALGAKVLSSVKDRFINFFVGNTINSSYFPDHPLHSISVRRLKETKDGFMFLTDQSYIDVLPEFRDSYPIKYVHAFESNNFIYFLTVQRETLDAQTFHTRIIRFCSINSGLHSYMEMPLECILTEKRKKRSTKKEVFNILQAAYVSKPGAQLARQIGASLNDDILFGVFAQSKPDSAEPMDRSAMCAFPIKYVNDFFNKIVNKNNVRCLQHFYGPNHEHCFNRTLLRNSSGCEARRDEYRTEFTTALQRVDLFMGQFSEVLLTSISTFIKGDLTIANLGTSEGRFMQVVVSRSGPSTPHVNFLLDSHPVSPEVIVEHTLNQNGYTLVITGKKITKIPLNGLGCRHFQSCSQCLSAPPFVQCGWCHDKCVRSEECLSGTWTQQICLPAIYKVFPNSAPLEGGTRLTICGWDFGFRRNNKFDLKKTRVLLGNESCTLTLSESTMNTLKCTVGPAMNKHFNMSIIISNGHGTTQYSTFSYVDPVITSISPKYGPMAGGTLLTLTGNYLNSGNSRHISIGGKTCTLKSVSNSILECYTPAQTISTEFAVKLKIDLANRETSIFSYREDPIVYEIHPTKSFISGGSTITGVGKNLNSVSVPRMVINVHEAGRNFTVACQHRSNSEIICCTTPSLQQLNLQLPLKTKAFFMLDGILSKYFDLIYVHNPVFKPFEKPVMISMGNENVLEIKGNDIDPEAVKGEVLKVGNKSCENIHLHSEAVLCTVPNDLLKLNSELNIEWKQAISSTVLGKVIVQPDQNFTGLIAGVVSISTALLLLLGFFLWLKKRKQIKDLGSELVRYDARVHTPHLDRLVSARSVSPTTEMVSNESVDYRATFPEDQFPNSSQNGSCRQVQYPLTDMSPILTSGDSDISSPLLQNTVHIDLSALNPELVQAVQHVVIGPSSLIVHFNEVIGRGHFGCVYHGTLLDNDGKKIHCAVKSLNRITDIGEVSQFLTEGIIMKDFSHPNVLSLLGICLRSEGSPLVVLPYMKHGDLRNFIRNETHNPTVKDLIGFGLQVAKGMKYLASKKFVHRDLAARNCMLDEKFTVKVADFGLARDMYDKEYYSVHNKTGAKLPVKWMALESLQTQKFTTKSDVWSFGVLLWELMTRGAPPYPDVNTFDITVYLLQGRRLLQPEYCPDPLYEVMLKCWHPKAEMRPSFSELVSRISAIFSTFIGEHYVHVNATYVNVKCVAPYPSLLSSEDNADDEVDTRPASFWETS

Substance: MC40-targeted protocells (mesoporous silica nanoparticle-supported lipid bilayer modified with 0.015 wt % MC40 targeting peptide)
- Kd: 1.05 nM
